The results in this text go back to PMC3457645.

Assay in all cases: purified protein
Substrate in data set [1]: CCCCCC(O)/C=C/C=O
The conditions noted are these: NAD+.

Substrate in data set [2]: CC(=O)Oc1ccc([N+](=O)[O-])cc1
Format: biochemical, Homo sapiens.

Substrate in data set [3]: CC=O
In kind it is biochemical, Homo sapiens. The conditions noted are these: NAD+.

Substrate in data set [4]: CCCCCC=O
In kind it is biochemical, Homo sapiens. The conditions noted are these: NAD+.

Substrate in data set [5]: CCCCCCCC=O
Format: biochemical, Homo sapiens. The following applies: NAD+.

Substrate in data set [6]: O=Cc1ccccc1
Format: biochemical, Homo sapiens. The conditions noted are these: NAD+.

Usually Km stands for the concentration of substrate that gives half-maximal velocity. The term Vmax denotes the rate approached at saturating substrate.

B1: ALDH3B1 (Homo sapiens) (protein)
chain: MDPLGDTLRRLREAFHAGRTRPAEFRAAQLQGLGRFLQENKQLLHDALAQDLHKSAFESEVSEVAISQGEVTLALRNLRAWMKDERVPKNLATQLDSAFIRKEPFGLVLIIAPWNYPLNLTLVPLVGALAAGNCVVLKPSEISKNVEKILAEVLPQYVDQSCFAVVLGGPQETGQLLEHRFDYIFFTGSPRVGKIVMTAAAKHLTPVTLELGGKNPCYVDDNCDPQTVANRVAWFRYFNAGQTCVAPDYVLCSPEMQERLLPALQSTITRFYGDDPQSSPNLGRIINQKQFQRLRALLGCGRVAIGGQSDESDRYIAPTVLVDVQEMEPVMQEEIFGPILPIVNVQSLDEAIEFINRREKPLALYAFSNSSQVVKRVLTQTSSGGFCGNDGFMHMTLASLPFGGVGASGMGRYHGKFSFDTFSHHRACLLRSPGMEKLNALRYPPQSPRRLRMLLVAMEAQGCSC
In the case of B1, the Michaelis constant (Km) in “purified protein [1]” was found to be 52 ± 5 µM; in “purified protein [2]” it was 3600 ± 250 µM; in the data set “purified protein [3]” it was 23300 ± 1500 µM; in “purified protein [4]”, 62 ± 8 µM; in “purified protein [5]”, 8 ± 2 µM; in “purified protein [6]”, 46 ± 11 µM. Besides, the maximal velocity (Vmax) in “purified protein [1]” came to 0.653 µmol/min/mg; in the data set “purified protein [2]” it was 1.32 µmol/min/mg; in the data set “purified protein [3]” it was 0.315 µmol/min/mg; in the data set “purified protein [4]”, 0.679 µmol/min/mg; in the data set “purified protein [5]”, 1.24 µmol/min/mg; in “purified protein [6]”, 0.129 µmol/min/mg.
